Data on one molecule can be found in paper PMC8486843, “SPOP mutation induces replication over-firing by impairing Geminin ubiquitination and triggers replication catastrophe upon ATR inhibition” (Nature Communications, 2021).

The target in assay [1] is T1, 15N-labeled SPOP MATH domain (amino acids 28-166) (human, UniProt O43791 28-166, 15N-labeled).
T1 construct: SPOP, human, MATH domain, residues 28-166; Hexahistidine tag cleaved with PreScission protease
Briefly: NMR titration; 1H-15N HSQC of 0.2 mM 15N-labeled SPOP MATH titrated with up to 3-fold molar excess of unlabeled peptide; 298 K; phosphate buffer, 50 mM NaCl, 5 mM DTT, pH 6.0. The conditions noted are these: both partners purified.

A further assay concerns the target T2, SPOP MATH (D140G mutant) (human, UniProt O43791 28-166, D140G).
T2 construct: SPOP, human, MATH domain, residues 28-166, D140G; Purified 'using the same protocol' as the 15N-labeled MATH domain 28-166; also called SPOP-MATH domain (D140G mutant)
Briefly: crystal structure; 1.1 mM SPOP MATH D140G with 5.5 mM Geminin peptide; sitting drop, 22 °C; 3.4 Å. The conditions noted are these: both partners purified.

T1 sequence (O43791 28-166): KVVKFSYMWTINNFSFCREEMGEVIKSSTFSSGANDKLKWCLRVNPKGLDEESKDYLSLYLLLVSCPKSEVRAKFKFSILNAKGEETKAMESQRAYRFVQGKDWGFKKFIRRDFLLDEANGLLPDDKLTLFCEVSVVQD
T2 sequence (O43791 28-166 D140G): as the sequence (O43791 28-166) above, with D113G counted along it

B1: Geminin WT SBC-containing peptide (amino acids 195-209) (peptide)
peptide: AEGTVSSSTDAKPCI
notes: Geminin, human, residues 195-209; also called Geminin peptide; Geminin wild-type SBC peptide; source: synthetic peptide
For B1, the binding result (in assay [1]; with SPOP MATH (D140G mutant)) was “binds” in each case.
